B1: LINE1-full (parent)
chain: UACGUAGGUGGUUUUCCCCUGAUAGUGCUAAGGGGGCCUGGAAGUUUGGACUGGGCAGAGCUCAACACAGCGUGGCAAAGUGGCUGUGGCUAGACUGCCUCUCUGGAUUCCUCGUCACUCAGCAGGGCAUCUCUGAGAGAAAUGCC

Variants of: B1
Assay: self-cleavage, relative activity (ratio to wild type); higher = more cleavage; in vitro, sequencing; the parent is a self-cleaving ribozyme

Point of comparison: A6G A92G, self-cleavage 0.22. Against it:
- U5C A30C — higher, 0.28
- U5C A30G — higher, 0.74
- U5C A31C — higher, 0.75
- U5C A31U — higher, 0.78
- U5C A42G — higher, 0.75
- U5C A42U — higher, 1.04
- U5C A50G — higher, 1.01
- U5C A57C — higher, 0.49
- U5C A59G — higher, 0.32
- U5C A67U — higher, 0.47
- U5C A69U — lower, 0.14
- U5C A77G — higher, 1.49
- U5C A77U — higher, 0.73
- U5C A78U — higher, 1.9
- U5C A79G — higher, 1.15
- U5C A94G — higher, 0.46
- U5C A107G — higher, 1.13
- U5C A121G — higher, 1.28
- U5C A121U — higher, 0.86
- U5C A124C — higher, 0.8
- U5C A124G — higher, 1.15
- U5C A129G — higher, 1.43
- U5C A138C — lower, 0
- U5C A140G — higher, 1.12
- U5C A141U — higher, 0.73
- U5C A142C — higher, 0.98
- U5C C18G — higher, 0.99
- U5C C19A — higher, 0.8
- U5C C19U — higher, 1
- U5C C71U — higher, 0.68
- U5C C90U — lower, 0.11
- U5C C95G — lower, 0.17
- U5C C113A — higher, 0.36
- U5C C116A — higher, 1.29
- U5C C123U — higher, 0.45
- U5C C146U — higher, 0.69
- U5C G10A — higher, 0.51
- U5C G25A — higher, 1.34
- U5C G27A — lower, 0.17
- U5C G32A — higher, 1.06
- U5C G33A — higher, 1.45
- U5C G36A — higher, 0.4
- U5C G53U — higher, 0.88
- U5C G55A — higher, 0.5
- U5C G74U — higher, 0.38
- U5C G80A — higher, 2.24
- U5C G82A — higher, 1.18
- U5C G89U — lower, 0.16
- U5C G97A — lower, 0
- U5C G105A — higher, 1.16
- U5C G105U — higher, 1.32
- U5C G114A — higher, 0.96
- U5C G126A — higher, 1.36
- U5C G135A — higher, 0.96
- U5C G144A — higher, 1.39
- U5C U9A — higher, 0.74
- U5C U9C — higher, 1.28
- U5C U12C — higher, 0.86
- U5C U12G — higher, 1.34
- U5C U13A — higher, 1.67
- U5C U14A — higher, 0.86
- U5C U15C — higher, 1
- U5C U20A — higher, 0.84
- U5C U20C — higher, 1.09
- U5C U23G — higher, 1.53
- U5C U26G — higher, 0.47
- U5C U39A — higher, 0.91
- U5C U39C — higher, 1.05
- U5C U45A — higher, 0.74
- U5C U45C — higher, 1.32
- U5C U46C — higher, 0.99
- U5C U62C — lower, 0.07
- U5C U73C — higher, 1.16
- U5C U81A — higher, 1.56
- U5C U81G — higher, 1.31
- U5C U85A — lower, 0.21
- U5C U85C — higher, 0.27
- U5C U87C — lower, 0.15
- U5C U91C — higher, 0.48
- U5C U100C — higher, 1.52
- U5C U102C — higher, 1
- U5C U104A — higher, 1.28
- U5C U108C — higher, 1.57
- U5C U108G — higher, 1.88
- U5C U109C — higher, 0.91
- U5C U115A — higher, 0.91
- U5C U115C — higher, 1.27
- U5C U119A — higher, 0.98
- U5C U130C — higher, 1.4
- U5C U132C — higher, 0.86
- U5G — higher, 0.76
- U5G A64G — higher, 0.23
- U5G A67U — higher, 0.31
- U5G A107G — higher, 0.86
- U5G A121G — higher, 0.84
- U5G A124U — higher, 0.96
- U5G A141C — higher, 0.56
- U5G U12C — higher, 0.77
- U5G U13C — higher, 0.83
- U5G U112C — higher, 0.51
- U5G U132C — higher, 1.04
- A6C — higher, 1.08
- A6C A22G — higher, 0.46
- A6C A31U — lower, 0
- A6C A124U — higher, 1.13
- A6C G35A — higher, 1.5
- A6C U45C — higher, 1.18
- A6C U85G — higher, 0.46
- A6C U96A — lower, 0.17
- A6C U115A — higher, 0.8
- A6C U119A — higher, 1.36
- A6G — higher, 0.91
- A6G A22G — higher, 1.19
- A6G A31U — higher, 1.01
- A6G A43U — higher, 0.85
- A6G A50C — higher, 1.23
- A6G A50G — higher, 0.77
- A6G A50U — higher, 0.51
- A6G A64G — higher, 0.62
- A6G A65G — lower, 0.09
- A6G A67G — higher, 0.39
- A6G A67U — higher, 0.68
- A6G A69G — higher, 0.32
- A6G A69U — the same, 0.22
- A6G A78G — higher, 1.15
- A6G A79G — higher, 0.8
- A6G A92U — higher, 1.23
- A6G A107G — higher, 0.74
- A6G A117G — higher, 1.41
- A6G A117U — higher, 2.04
- A6G A129G — higher, 0.26
- A6G A129U — higher, 0.6
- A6G A140G — higher, 0.69
- A6G A140U — higher, 0.77
- A6G A142G — higher, 1.01
- A6G C17U — higher, 0.28
- A6G C37A — higher, 0.76
- A6G C38U — higher, 1.62
- A6G C56U — higher, 0.27
- A6G C101A — higher, 0.56
- A6G C113A — higher, 1.18
- A6G C113U — higher, 0.84
- A6G C133U — higher, 0.59
- A6G C146U — higher, 1.05
- A6G G21U — higher, 0.53
- A6G G25A — lower, 0.1
- A6G G25U — higher, 0.69
- A6G G32A — higher, 0.68
- A6G G33A — higher, 0.49
- A6G G41U — higher, 0.46
- A6G G48A — the same, 0.22
- A6G G74A — higher, 0.4
- A6G G93A — lower, 0.14
- A6G G97A — lower, 0.18
- A6G G106A — higher, 0.66
- A6G G106U — higher, 1.06
- A6G G122A — higher, 0.55
- A6G G125A — higher, 0.77
- A6G G126A — higher, 0.99
- A6G G127A — higher, 0.46
- A6G G144A — higher, 1.21
- A6G U9A — higher, 0.75
- A6G U12C — higher, 0.73
- A6G U12G — higher, 0.85
- A6G U14A — higher, 0.95
- A6G U15G — higher, 0.97

From the RNAGym collection of RNA variant scans (doi:10.7554/elife.90254)
